According to patent US20240317847A1 (Bayer, published 2024):

T1: murine IL-11 (mouse, UniProt P47873 22-199)
T1 sequence: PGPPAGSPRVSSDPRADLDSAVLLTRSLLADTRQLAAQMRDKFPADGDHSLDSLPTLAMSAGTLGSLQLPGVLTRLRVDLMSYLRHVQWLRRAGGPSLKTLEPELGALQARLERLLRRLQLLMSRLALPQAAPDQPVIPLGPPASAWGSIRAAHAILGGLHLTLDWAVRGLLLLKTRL

T2: human IL-11 (human, UniProt P20809 22-199)
T2 sequence: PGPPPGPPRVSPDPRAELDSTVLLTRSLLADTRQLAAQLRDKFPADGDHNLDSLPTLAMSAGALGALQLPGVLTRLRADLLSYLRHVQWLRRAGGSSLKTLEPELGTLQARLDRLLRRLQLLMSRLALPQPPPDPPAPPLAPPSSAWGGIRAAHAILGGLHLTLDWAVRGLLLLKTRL


Tests used:
[1] = target: T1, murine IL-11; test: cell-based or functional assay
[2] = target: T2, human IL-11; test: cell-based or functional assay
[3] = target: T1, murine IL-11; test: SPR; limit told of 12 single-site germlining mutants; antigen not given, SPR run on human and mouse IL-11
[4] = target: T2, human IL-11; test: as above
[5] = target: T1, murine IL-11; test: cell-based or functional assay; remark: listed apart in the source
[6] = target: T2, human IL-11; test: cell-based or functional assay; remark: listed apart in the source

Binder	RGA potency (mean) [1] [nM]	RGA potency (mean) [2] [nM]	Kd [3] [nM]	Kd [4] [nM]	IC50, RGA 1 [5] [nM]	IC50, RGA 2 [5] [nM]	IC50, RGA 1 [6] [nM]	IC50, RGA 2 [6] [nM]
TPP-31284 (antibody, IgG4, V domains shown, hIgG4 SPLE, lambda) VH: EVQLLESGGGLVQPGGSLRLSCAASGFTFSHYDMNWLRQAPGKGLEWVGVISYDGSNKFYADFVKGRFTISRDNSKNTLYLQMNSLRAEDTAVYYCARTPGSHFDYWGQGTLVTVSS VL: QSVLTQPPSASGTPGQRVTISCSGSSSNIGNNAVNWYQQLPGTAPKLLIYYDDLRPSGVPDRFSGSKSGTSASLAISGLRSEDEADYYCSAWDDSLNGVVFGGGTKLTVL	< 170	< 170	< 19	< 19	65	17	101	131
TPP-31296 (antibody, IgG4, V domains shown, hIgG4 SPLE, lambda) VH: EVQLLESGGGLVQPGGSLRLSCAASGFTFSHYDMNWLRQAPGKGLEWVGVISYDGSNKFYADSVKGRFTISRDNSKNTLYLQMNSLRAEDTAVYYCARTPGSHFDYWGQGTLVTVSS VL: QSVLTQPPSASGTPGQRVTISCSGSSSNIGNNAVNWYQQLPGTAPKLLIYYDDLLPSGVPDRFSGSKSGTSASLAISGLRSEDEADYYCSAWDDSLNGVVFGGGTKLTVL	< 170	< 170	< 19	< 19	20	22	46	158
TPP-31292 (antibody, IgG4, V domains shown, hIgG4 SPLE, lambda) VH: EVQLLESGGGLVQPGGSLRLSCAASGFTFSHYDMHWLRQAPGKGLEWVGVISYDGSNKFYADFVKGRFTISRDNSKNTLYLQMNSLRAEDTAVYYCARTPGSHFDYWGQGTLVTVSS VL: QSVLTQPPSASGTPGQRVTISCSGSSSNIGNNAVNWYQQLPGTAPKLLIYYDDLLPSGVPDRFSGSKSGTSASLAISGLRSEDEADYYCSAWDDSLNGVVFGGGTKLTVL	< 170	< 170	< 19	< 19	52	39	234	107
TPP-31277 (antibody, IgG4, V domains shown, hIgG4 SPLE, lambda) VH: EVQLLESGGGLVQPGGSLRLSCAASGFTFSHYDMNWLRQAPGKGLEWVGVISYDGSNKFYADFVKGRFTISRDNSKNTLYLQMNSLRAEDTAVYYCARTPGSHFDYWGQGTLVTVSS VL: QSVLTQPPSASGTPGQRVTISCSGSSSNIGSNAVNWYQQLPGTAPKLLIYYDDLLPSGVPDRFSGSKSGTSASLAISGLRSEDEADYYCSAWDDSLNGVVFGGGTKLTVL	< 170	< 170	< 19	< 19	43	27	211	47
TPP-31285 (antibody, IgG4, V domains shown, hIgG4 SPLE, lambda) VH: EVQLLESGGGLVQPGGSLRLSCAASGFTFSHYDMNWLRQAPGKGLEWVGVISYDGSNKFYADFVKGRFTISRDNSKNTLYLQMNSLRAEDTAVYYCARTPGSHFDYWGQGTLVTVSS VL: QSVLTQPPSASGTPGQRVTISCSGSSSNIGNNAVNWYQQLPGTAPKLLIYYDDLLPSGVPDRFSGSKSGTSASLAISGLRSEDEADYYCAAWDDSLNGVVFGGGTKLTVL	< 170	< 170	< 19	< 19	111	23	50	16

Continued, values first:

RGA potency (mean) [1] [nM]	RGA potency (mean) [2] [nM]	Kd [3] [nM]	Kd [4] [nM]	IC50, RGA 1 [5] [nM]	IC50, RGA 2 [5] [nM]	IC50, RGA 1 [6] [nM]	IC50, RGA 2 [6] [nM]	Binder
< 170	< 170	< 19	< 19	41	28	96	38	TPP-31294 (antibody, IgG4, V domains shown, hIgG4 SPLE, lambda) VH: EVQLLESGGGLVQPGGSLRLSCAASGFTFSHYDMNWLRQAPGKGLEWVAVISYDGSNKFYADFVKGRFTISRDNSKNTLYLQMNSLRAEDTAVYYCARTPGSHFDYWGQGTLVTVSS VL: QSVLTQPPSASGTPGQRVTISCSGSSSNIGNNAVNWYQQLPGTAPKLLIYYDDLLPSGVPDRFSGSKSGTSASLAISGLRSEDEADYYCSAWDDSLNGVVFGGGTKLTVL
< 170	< 170	< 19	< 19	0.13	0.08	22	2.36	TPP-31278 (antibody, IgG4, V domains shown, hIgG4 SPLE, lambda) VH: EVQLLESGGGLVQPGGSLRLSCAASGFTFSHYDMNWLRQAPGKGLEWVGVISYDGSNKFYADFVKGRFTISRDNSKNTLYLQMNSLRAEDTAVYYCARTPGSHFDYWGQGTLVTVSS VL: QSVLTQPPSASGTPGQRVTISCSGSSSNIGNNYVNWYQQLPGTAPKLLIYYDDLLPSGVPDRFSGSKSGTSASLAISGLRSEDEADYYCSAWDDSLNGVVFGGGTKLTVL
